Measured values taken from article PMC3737541, “Structure-function analysis of the EF-hand protein centrin-2 for its intracellular localization and nucleotide excision repair” (Nucleic Acids Research, 2013).

How the values were obtained:
FLAG-XPA = target: T1, FLAG-XPA (human, UniProt P23025 1-273); assay: pull-down; FLAG-XPA (0.5 µg) immobilised on anti-DDDDK-tag magnetic beads; centrin-2 in buffer B, on ice 1 h; elution with FLAG peptide; immunoblot; no XPC/RAD23B; conditions: both partners purified
T1 construct: XPA protein, human; also called purified recombinant XPA

[1] = target: T2, FLAG-XPC/RAD23B-His complex (human, UniProt Q01831 1-940; P54727 1-409); assay: cell-based or functional assay
T2 sequence (looked up) 1: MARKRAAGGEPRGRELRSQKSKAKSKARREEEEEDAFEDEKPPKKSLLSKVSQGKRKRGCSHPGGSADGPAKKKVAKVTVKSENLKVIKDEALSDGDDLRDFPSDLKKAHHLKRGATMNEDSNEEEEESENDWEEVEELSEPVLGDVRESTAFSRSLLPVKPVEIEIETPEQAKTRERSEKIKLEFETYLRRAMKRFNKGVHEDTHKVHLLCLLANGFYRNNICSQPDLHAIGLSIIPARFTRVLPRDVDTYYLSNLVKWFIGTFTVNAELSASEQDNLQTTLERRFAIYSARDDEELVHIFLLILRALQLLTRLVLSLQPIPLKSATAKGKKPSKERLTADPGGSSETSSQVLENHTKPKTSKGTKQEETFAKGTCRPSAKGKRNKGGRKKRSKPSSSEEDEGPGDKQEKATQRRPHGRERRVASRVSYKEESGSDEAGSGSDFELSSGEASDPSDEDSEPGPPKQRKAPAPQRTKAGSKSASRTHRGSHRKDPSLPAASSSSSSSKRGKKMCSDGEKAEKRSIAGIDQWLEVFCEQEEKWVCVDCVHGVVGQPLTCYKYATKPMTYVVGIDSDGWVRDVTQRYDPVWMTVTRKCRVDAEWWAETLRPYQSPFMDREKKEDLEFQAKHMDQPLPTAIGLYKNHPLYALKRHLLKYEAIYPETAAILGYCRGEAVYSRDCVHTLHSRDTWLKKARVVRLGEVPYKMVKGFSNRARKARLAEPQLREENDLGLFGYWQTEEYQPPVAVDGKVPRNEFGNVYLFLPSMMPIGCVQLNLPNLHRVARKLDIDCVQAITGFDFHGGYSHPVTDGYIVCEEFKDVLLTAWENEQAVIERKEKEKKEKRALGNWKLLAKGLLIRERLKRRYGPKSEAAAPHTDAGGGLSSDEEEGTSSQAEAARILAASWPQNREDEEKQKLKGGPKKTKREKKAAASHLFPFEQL
T2 sequence (looked up) 2: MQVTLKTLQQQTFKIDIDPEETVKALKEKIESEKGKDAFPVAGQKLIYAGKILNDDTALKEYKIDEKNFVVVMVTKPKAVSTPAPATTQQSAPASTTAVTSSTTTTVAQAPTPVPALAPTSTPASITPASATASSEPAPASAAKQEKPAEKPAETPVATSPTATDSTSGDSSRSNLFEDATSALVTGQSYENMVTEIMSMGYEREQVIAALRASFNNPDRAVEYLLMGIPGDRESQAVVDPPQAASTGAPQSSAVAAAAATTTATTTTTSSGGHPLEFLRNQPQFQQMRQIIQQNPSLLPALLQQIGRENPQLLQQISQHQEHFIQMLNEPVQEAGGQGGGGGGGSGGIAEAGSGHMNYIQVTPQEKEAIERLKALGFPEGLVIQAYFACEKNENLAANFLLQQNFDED

[2] = target: T2, FLAG-XPC/RAD23B-His complex; assay: pull-down; purified GST-centrin-2 (WT, N or C) incubated with FLAG-XPC/RAD23B-His, pulled down with anti-FLAG antibody beads; immunoblot; conditions: both partners purified
[3] = target: T2, FLAG-XPC/RAD23B-His complex; assay: pull-down; FLAG-XPC/RAD23B-His immobilised on anti-FLAG magnetic beads, incubated with centrin-2 (WT or C domain, GST removed), extensive washing, elution with FLAG peptide; reconstituted heterotrimers; conditions: both partners purified

T1 sequence (P23025 whole entry): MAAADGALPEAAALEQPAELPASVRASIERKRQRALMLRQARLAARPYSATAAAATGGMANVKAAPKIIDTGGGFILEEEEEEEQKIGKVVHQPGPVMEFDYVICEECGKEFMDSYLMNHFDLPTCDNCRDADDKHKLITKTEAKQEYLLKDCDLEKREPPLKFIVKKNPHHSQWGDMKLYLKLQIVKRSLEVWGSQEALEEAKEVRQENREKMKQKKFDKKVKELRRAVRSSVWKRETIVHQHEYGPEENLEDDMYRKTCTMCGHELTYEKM

B1: centrin-2 (WT), detached from the GST tag (natural protein, human, UniProt P41208 1-172, looked up)
chain: MASNFKKANMASSSQRKRMSPKPELTEEQKQEIREAFDLFDADGTGTIDVKELKVAMRALGFEPKKEEIKKMISEIDKEGTGKMNFGDFLTVMTQKMSEKDTKEEILKAFKLFDDDETGKISFKNLKRVAKELGENLTDEELQEMIDEADRDGDGEVSEQEFLRIMKKTSLY
notes: centrin-2, human, wild type; also called WT centrin-2; full-length protein; source: E. coli BL21 (DE3), purified (GSTrap FF, HiTrap Phenyl FF), GST removed with PreScission protease; not shown: GST, N-terminal, cleaved
binding result (FLAG-XPA): binds
EMSA: enhancement of the binding of XPC/RAD23B to a 180 bp DNA with a 6-4PP by centrin-2 (WT) [1]: ~2 fold

B2: centrin-2 M4 mutant, recombinant (natural protein, human, UniProt P41208 1-172, looked up)
chain: MASNFKKANMASSSQRKRMSPKPELTEEQKQEIREAFDLFDADGTGTIDVKELKVAMRALGFEPKKEEIKKMISEIDKEGTGKMNFGDFLTVMTQKMSEKDTKEEILKAFKAADDDETGKISFKNLKRVAKEAGENLTDEELQEAIDEADRDGDGEVSEQEFLRIMKKTSLY
notes: centrin-2, human, point mutant M4 of the WT protein (intact N domain); also called M4 mutant of centrin-2; source: E. coli BL21 (DE3), purified (GSTrap FF, HiTrap Phenyl FF)
binding result (FLAG-XPA): binds

B3: GST-centrin-2 C domain (domain or fragment, human, UniProt P41208 94-172, looked up)
chain: TQKMSEKDTKEEILKAFKLFDDDETGKISFKNLKRVAKELGENLTDEELQEMIDEADRDGDGEVSEQEFLRIMKKTSLY
notes: centrin-2, human, carboxyl-terminal (C) domain, residues 94-172; source: E. coli BL21 (DE3), purified (GSTrap FF, HiTrap Phenyl FF); not shown: GST, N-terminal, kept
binding result [2]: binds

B4: centrin-2 C domain, detached from the GST tag (domain or fragment, human, UniProt P41208 94-172, looked up)
chain: TQKMSEKDTKEEILKAFKLFDDDETGKISFKNLKRVAKELGENLTDEELQEMIDEADRDGDGEVSEQEFLRIMKKTSLY
notes: centrin-2, human, carboxyl-terminal (C) domain, residues 94-172; also called the C domain alone; source: E. coli BL21 (DE3), purified (GSTrap FF, HiTrap Phenyl FF), GST removed with PreScission protease; not shown: GST, N-terminal, cleaved
binding result [3]: binds
